# From article PMC8683389, “The monofunctional CO dehydrogenase CooS is essential for growth of Thermoanaerobacter kivui on carbon monoxide” (Extremophiles, 2021)
# Molecular target: the molecule itself
# Assay: SEC; analytical size exclusion on a calibrated Superdex 200 column, buffer B, size standards 43-440 kDa; oligomeric state of the purified complex
protein,measurement,value
"His-CooSF1 complex of Thermoanaerobacter kivui (complex, as the chain of m1; as the chain of m2; Written as the CooS-CooF1 unit; also called His-CooFS1; source: T. kivui pMU131_His-cooS, purified (Ni2+-NTA, Superdex 200); not shown: 10 x His, N-terminal, kept) chain 1: MSDNYIYSAEKVIDELSRKPGFVDTAIKRWEKRDPKCGFGYKGICCRLCSNGPCRITPTQPVGICGATADTIVARNLLRAIAAGTSCYVHHCRNAANTLLSVAEGKSSYTIKDEEKLKKYAKKMGINTNKDIKRIAYEFATRVLNDLSKPYTEKAELVEKLSLPARVSTWKSLNIMPGGVNEEIIAALTKTSTNLNSDPVDMAVHCLRLGIITGIYGLELTCIMQDILLGSPKIASTYSNFGVIDQGYINLATIGGHQQVVSNRILEMASSKEWVKKAQEAGAKGFKIYGVTCVGQDYELRCASDKNSAFGGYVGNNFTQEYILGTGAIDLVFSEFNCTLPGIEPICKEYLVKQICLDDVAKKVGADLYQFQPEKADEYAAITLDEAIKAYKNRRGKVKIDVPTEKTPAMTGFTEDSIKGALGGSWKLLIDLIVKGDIKGVAGVVGCSNMAAKGHGIYGVELTKELIKRDILVLGNGCVGGNLENAGLYGLESIELAGPKLKEVCRKLNIPPVLNIGPCLSIGRIHIIAEEIAEELKVDVPQIPVVASAPQWLEEQALADGTFGVVLGLDLLLGTPPAVTGSNLITELLTSKLKDMVGARFIIEADPILGADAMESSIMERRKLLNI chain 2: MDVKSGTKYIFADIKKCLGCRCCEQACADANGNRPYWELLGSGIPLSPNINILYIFLQDKNYPVMAQAVCRQCEDAPCVKICPVKAISVNPDGIKVIDKQRCIGCHSCSIVCPFGAVYIPDKHAVATKCTLCIERKGAEGQPACVEACPNGALQLVDTKEIGREKVKKIVSDTFSNK",stoichiometry N,6
